Experimental findings from patent publication US12297272B2, “IgG Fc variants for veterinary use” (Elanco US Inc., priority 2017, dated 2025) are described below.

One series concerns the target Protein A (Staphylococcus aureus, UniProt P38507). The note with it: for Protein A Binding: Wild-type Canine IgG Fc. As for the experimental part:
In some embodiments, the KD of an IgG Fc polypeptide, such as a variant IgG Fc polypeptide, to Protein A or to C1q or to CD16 is measured by using biolayer interferometry assays using a biosensor, such as an Octet® System (Pall ForteBio LLC, Fremont, CA) according to the supplier's instructions. In brief, biotinylated Protein A or C1q or CD16 is bound to the sensor tip and the association of IgG Fc polypeptide is monitored for a specified time or until steady state is reached. Dissociation may be monitored for a specified time or until steady state is reached. A buffer only blank curve is subtracted to correct for any drift. The data are fit to a 2:1 binding model using ForteBio data analysis software to determine association rate constant (kon), dissociation rate constant (koff), and the Kd. The equilibrium dissociation constant (KD) is calculated as the ratio of koff/kon. The term “kon” refers to the rate constant for association of a molecule X to its partner Y and the term “koff” refers to the rate constant for dissociation of a molecule X or partner Y from the molecule X/partner Y complex.
Binding analysis may be performed using an Octet biosensor. Briefly, the target molecule (e.g., Protein A, C1q, CD16, etc.) may be biotinylated and free unreacted biotin removed (e.g., by dialysis). The biotinylated target molecule is captured on streptavidin sensor tips. Association of the target molecule with various concentrations (e.g., 10 μg/mL) of IgG Fc polypeptide is monitored for a specified time or until steady state is reached. Dissociation is monitored for a specified time or until steady state is reached. A buffer only blank curve may be subtracted to correct for any drift. The data are fit to a 1:1 binding model using ForteBio™ data analysis software to determine the kon, koff, and the Kd.

Series [1] has as its target T1, C1q (Homo sapiens, UniProt P02745+P02746+P02747). The experiment in a line: C1q binding of IgG Fc polypeptides (Octet biolayer interferometry described). On C1q binding: key: (−) denotes low or no measurable binding activity. An excerpt: (§1) Binding analysis may be performed using an Octet biosensor.
The next series addresses CD16 (Homo sapiens, UniProt P08637). The experiment in a line: CD16 binding of IgG Fc polypeptides (Octet biolayer interferometry described). The settings on record: for CD16 Binding: Wild-type Canine IgG Fc.
From the text: as §1

Series [2] can be described thus: Differential scanning fluorimetry, stability at various pH. The settings on record: n = 3, 10 μg construct. In kind it is physicochemical. An excerpt: Furthermore, differential scanning fluorimetry was used to assess the stability of the contiguous polypeptides at various pH, as reflected by mean melting point temperature (n=3) (Table 9, below). The increased stability of the variant feline IgG2 hinge is most evident at pH 6.

Series [3] addresses T1, C1q. Nature of the series: Binding between human C1q and canine IgG-B Fc fusion protein. The settings on record: compared to a fusion protein comprising wild-type canine IgG-B Fc.
From the text: as §1

Where a chain is given by its changes, count along the chain named.

T1 sequence (P02745 23-245): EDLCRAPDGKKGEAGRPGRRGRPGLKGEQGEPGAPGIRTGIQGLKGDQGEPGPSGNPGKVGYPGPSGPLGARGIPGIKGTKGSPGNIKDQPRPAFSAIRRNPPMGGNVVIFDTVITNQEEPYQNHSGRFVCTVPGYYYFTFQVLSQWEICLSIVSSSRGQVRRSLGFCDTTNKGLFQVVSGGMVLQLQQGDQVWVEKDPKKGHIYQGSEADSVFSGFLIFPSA
T1 sequence (P02746 28-253): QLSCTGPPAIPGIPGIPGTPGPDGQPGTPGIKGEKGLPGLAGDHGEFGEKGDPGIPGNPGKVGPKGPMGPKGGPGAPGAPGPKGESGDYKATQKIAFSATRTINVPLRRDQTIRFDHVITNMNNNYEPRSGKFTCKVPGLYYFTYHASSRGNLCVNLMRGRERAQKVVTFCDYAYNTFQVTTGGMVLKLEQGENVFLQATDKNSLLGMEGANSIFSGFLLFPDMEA
T1 sequence (P02747 29-245): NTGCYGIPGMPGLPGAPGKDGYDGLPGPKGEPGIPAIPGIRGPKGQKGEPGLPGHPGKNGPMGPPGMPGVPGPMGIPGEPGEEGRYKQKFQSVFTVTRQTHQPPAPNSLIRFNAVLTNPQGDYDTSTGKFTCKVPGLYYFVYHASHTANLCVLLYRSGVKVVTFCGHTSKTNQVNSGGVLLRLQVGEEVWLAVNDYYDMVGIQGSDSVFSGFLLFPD
Chain of CD16 (P08637 17-254): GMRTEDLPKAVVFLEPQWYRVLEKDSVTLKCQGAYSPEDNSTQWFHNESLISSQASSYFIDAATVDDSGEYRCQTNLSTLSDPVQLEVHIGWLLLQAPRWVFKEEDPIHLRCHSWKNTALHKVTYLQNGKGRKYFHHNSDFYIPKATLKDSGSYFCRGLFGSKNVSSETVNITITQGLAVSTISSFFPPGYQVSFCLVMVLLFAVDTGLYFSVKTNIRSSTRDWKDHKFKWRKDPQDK

B1: canine IgG-C Fc: wild-type canine IgG-C Fc polypeptide (protein)
chain: PGCGLLGGPSVFIFPPKPKDILVTARTPTVTCVVVDLDPENPEVQISWFVDSKQVQTANTQPREEQSNGTYRVVSVLPIGHQDWLSGKQFKCKVNNKALPSPIEEIISKTPGQAHQPNVYVLPPSRDEMSKNTVTLTCLVKDFFPPEIDVEWQSNGQQEPESKYRMTPPQLDEDGSYFLYSKLSVDKSRWQRGDTFICAVMHEALHNHYTQISLSHSPGK
modifications: Wild-type canine IgG-C Fc , Protein A - , C1q +, CD16 +
notes: wild-type canine IgG-C Fc polypeptide
With B1, in the series with Protein A, the “Protein A binding affinity” value is listed as “weak or no measurable Protein A binding affinity” and the “Protein A Binding” value was “−”. Also, the “binding affinity to C1q” value in the series with C1q [1] is “bind to C1q”. Further, the CD16 binding activity entry with CD16 is “have CD16 binding activity”.

B2: GLP1-G8/GLP1-2G_III_VARfeIgG2: Formula III GLP1 contiguous polypeptide comprising variant feline IgG2 Fc of SEQ ID NO: 17 (Gly to Cys at position 14) (protein)
chain: HGEGTFTSDVSSYLEGQAAKEFIAWLVKGGGGSGGGGSGGGGSGGGGSPKTASTIESKTGECPKCPVPEIPGAPSVFIFPPKPKDTLSISRTPEVTCLVVDLGPDDSNVQITWFVDNTEMHTAKTRPREEQFNSTYRVVSVLPILHQDWLKGKEFKCKVNSKSLPSAMERTISKAKGQPHEPQVYVLPPTQEELSENKVSVTCLIKGFHPPDIAVEWEITGQPEPENNYQTTPPQLDSDGTYFLYSRLSVDRSHWQRGNTYTCSVSHEALHSHHTQKSLTQSPGKGGGGSGGGGHAEGTFTSDVSSYLEGQAAKEFIAWLVKGGG
modifications: Synthetic GLP1-G8/GLP1-2G_III_ VARfeIgG2
In the case of B2, the “Mean Melting Point Temperature (Tm)” value in series [2] (pH 6) is 56.9 °C; in series [2] (pH 7) it was 55 °C; in series [2] (pH 8), 52.5 °C.

B3: GLP1-G8/GLP1-2G_III_WTfeIgG2: Formula III contiguous polypeptide: GLP1-G8 (7-35), GLP1 (7-35), two flexible linkers, 2G C-terminal extension, wildtype feline IgG2 Fc (protein)
chain: B2 chain with C62G
modifications: Synthetic GLP1-G8/GLP-2G_III_ WTfeIgG2
notes: Formula III contiguous polypeptide: GLP1-G8 (7-35), GLP1 (7-35), two flexible linkers, 2G C-terminal extension, wildtype feline IgG2 Fc
Regarding B3, the “Mean Melting Point Temperature (Tm)” value in series [2] (pH 6) stood at 55.2 °C; in series [2] (pH 7) it was 55.7 °C; in series [2] (pH 8), 54.2 °C.

B4: canine IgG-B Fc: wild-type canine IgG-B Fc polypeptide (protein)
chain: PAPEMLGGPSVFIFPPKPKDTLLIARTPEVTCVVVDLDPEDPEVQISWFVDGKQMQTAKTQPREEQFNGTYRVVSVLPIGHQDWLKGKQFTCKVNNKALPSPIERTISKARGQAHQPSVYVLPPSREELSKNTVSLTCLIKDFFPPDIDVEWQSNGQQEPESKYRTTPPQLDEDGSYFLYSKLSVDKSRWQRGDTFICAVMHEALHNHYTQESLSHSPGK
modifications: Wild-type canine IgG-B Fc , Protein A +, C1q +, CD16 +
notes: wild-type canine IgG-B Fc polypeptide
On to B4, for which, in the series with Protein A, the “Protein A binding affinity” value is given as “has Protein A binding affinity”. The “binding affinity to C1q” value with C1q [1] was “bind to C1q”. Further, in the series with CD16, the CD16 binding activity entry is “have CD16 binding activity”.

B5: fusion protein comprising variant canine IgG-B Fc K(93)R: fusion protein comprising variant canine IgG-B Fc K(93)R (SEQ ID NO: 78); fusion partner not stated (protein)
chain: B4 chain with K93R
modifications: left off: a dimerising Fc or GST
For B5, in the series with C1q [3], the “binding to human C1q” value was “Reduced binding”.

B6: canine IgG-D Fc: wild-type canine IgG-D Fc polypeptide (protein)
chain: PVPESLGGPSVFIFPPKPKDILRITRTPEITCVVLDLGREDPEVQISWFVDGKEVHTAKTQPREQQFNSTYRVVSVLPIEHQDWLTGKEFKCRVNHIGLPSPIERTISKARGQAHQPSVYVLPPSPKELSSSDTVTLTCLIKDFFPPEIDVEWQSNGQPEPESKYHTTAPQLDEDGSYFLYSKLSVDKSRWQQGDTFTCAVMHEALQNHYTDLSLSHSPGK
modifications: Wild-type canine IgG-D Fc , Protein A -, C1q -, CD16
notes: wild-type canine IgG-D Fc polypeptide
As to B6, in the series with Protein A, the “Protein A binding affinity” value is “weak or no measurable Protein A binding affinity” and the “Protein A Binding” value is given as “−”. For the same molecule, the “binding affinity to C1q” value with C1q [1] was “weak or no measurable binding affinity to C1q”. Moreover, the “C1q Binding” value with C1q [1] (Wild-type Canine IgG Fc) is given as “−”. Further, in the series with CD16, the “CD16 Binding” value was “−”.

B7: feline IgG2 Fc: wild-type feline IgG2 Fc polypeptide (protein)
chain: PKTASTIESKTGEGPKCPVPEIPGAPSVFIFPPKPKDTLSISRTPEVTCLVVDLGPDDSNVQITWFVDNTEMHTAKTRPREEQFNSTYRVVSVLPILHQDWLKGKEFKCKVNSKSLPSAMERTISKAKGQPHEPQVYVLPPTQEELSENKVSVTCLIKGFHPPDIAVEWEITGQPEPENNYQTTPPQLDSDGTYFLYSRLSVDRSHWQRGNTYTCSVSHEALHSHHTQKSLTQSPGK
modifications: Wild-type feline IgG2 Fc, Protein A +, C1q -
notes: wild-type feline IgG2 Fc polypeptide
With B7, the “Protein A binding affinity” value with Protein A is given as “have Protein A binding affinity”. The “binding affinity to C1q” value with C1q [1] is reported as “weak or no measurable binding affinity to C1q”. Further, the “C1q Binding” value with C1q [1] (Wild-type Feline IgG Fc) is given as “−”.

B8: canine IgG-A Fc: wild-type canine IgG-A Fc polypeptide (protein)
chain: PVPEPLGGPSVLIFPPKPKDILRITRTPEVTCVVLDLGREDPEVQISWFVDGKEVHTAKTQSREQQFNGTYRVVSVLPIEHQDWLTGKEFKCRVNHIDLPSPIERTISKARGRAHKPSVYVLPPSPKELSSSDTVSITCLIKDFYPPDIDVEWQSNGQQEPERKHRMTPPQLDEDGSYFLYSKLSVDKSRWQQGDPFTCAVMHETLQNHYTDLSLSHSPGK
modifications: Wild-type canine IgG-A Fc , Protein A -, C1q -, CD16
notes: wild-type canine IgG-A Fc polypeptide
Turning to B8, in the series with Protein A, the “Protein A binding affinity” value was “weak or no measurable Protein A binding affinity” and the “Protein A Binding” value is “−”. Further, in the series with C1q [1], the “binding affinity to C1q” value is given as “weak or no measurable binding affinity to C1q”. Besides, the “C1q Binding” value with C1q [1] (Wild-type Canine IgG Fc) was “−”. Besides, in the series with CD16, the “CD16 Binding” value is “−”.

B9: GLP1-G8_I_WTfeIgG2: Formula I contiguous polypeptide: GLP1-G8 (7-35), flexible linker, wildtype feline IgG2 Fc (protein)
chain: HGEGTFTSDVSSYLEGQAAKEFIAWLVKGGGGSGGGGSGGGGSGGGGSPKTASTIESKTGEGPKCPVPEIPGAPSVFIFPPKPKDTLSISRTPEVTCLVVDLGPDDSNVQITWFVDNTEMHTAKTRPREEQFNSTYRVVSVLPILHQDWLKGKEFKCKVNSKSLPSAMERTISKAKGQPHEPQVYVLPPTQEELSENKVSVTCLIKGFHPPDIAVEWEITGQPEPENNYQTTPPQLDSDGTYFLYSRLSVDRSHWQRGNTYTCSVSHEALHSHHTQKSLTQSPGK
modifications: Synthetic GLP1-G8_I_WTfeIgG2
notes: Formula I contiguous polypeptide: GLP1-G8 (7-35), flexible linker, wildtype feline IgG2 Fc
In the case of B9, the “Mean Melting Point Temperature (Tm)” value was found to be 48.5 °C in series [2] (pH 5), 56.9 °C in series [2] (pH 6), 59.9 °C in series [2] (pH 7) and 59 °C in series [2] (pH 8).
